# Assay results as given in US20240288440A1.
# Assays:
# [1] = target: chimeric secretory component (CSC) of the polymeric immunoglobulin receptor (rabbit (domain 1) and human (domains 2 to 5))
# [2] = target: receptor binding domain (RBD) of the SARS COV-2 spike protein (amino acids 332-532) (SARS-COV-2) (UniProt P0DTC2)
# Chain of chimeric secretory component (CSC) of the polymeric immunoglobulin receptor (rabbit (domain 1) and human (domains 2 to 5)) (P01833 other isoform, or with tags, fused parts or gaps mutant): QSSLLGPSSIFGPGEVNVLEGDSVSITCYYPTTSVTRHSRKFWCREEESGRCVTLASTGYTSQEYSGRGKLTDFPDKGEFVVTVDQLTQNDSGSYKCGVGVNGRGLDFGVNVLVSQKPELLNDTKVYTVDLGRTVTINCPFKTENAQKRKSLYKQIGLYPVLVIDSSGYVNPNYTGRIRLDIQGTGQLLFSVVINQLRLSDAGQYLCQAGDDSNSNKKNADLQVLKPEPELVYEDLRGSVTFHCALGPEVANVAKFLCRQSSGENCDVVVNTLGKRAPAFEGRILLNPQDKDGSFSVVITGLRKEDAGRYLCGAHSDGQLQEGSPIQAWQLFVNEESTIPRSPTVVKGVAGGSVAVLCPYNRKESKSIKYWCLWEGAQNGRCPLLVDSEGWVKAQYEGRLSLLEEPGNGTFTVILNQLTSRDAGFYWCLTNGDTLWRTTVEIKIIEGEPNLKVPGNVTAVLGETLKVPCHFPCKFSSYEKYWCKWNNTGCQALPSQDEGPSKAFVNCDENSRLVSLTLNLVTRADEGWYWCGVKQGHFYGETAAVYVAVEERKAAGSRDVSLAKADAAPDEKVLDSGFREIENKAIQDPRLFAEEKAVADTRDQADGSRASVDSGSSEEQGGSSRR
substance,measurement,setting,value
"CB6-IgG (SARS-COV-2 specific monoclonal antibody CB6, IgG form)",limit of detection,[1],> 100 µg/mL
same,limit of detection,[2],5 µg/mL
